In paper PMC2191977 (The Journal of Experimental Medicine, 1995):

Biological target: T1, B7 P172A (mouse, UniProt Q00609 38-306, P172A)
T1 sequence (looked up): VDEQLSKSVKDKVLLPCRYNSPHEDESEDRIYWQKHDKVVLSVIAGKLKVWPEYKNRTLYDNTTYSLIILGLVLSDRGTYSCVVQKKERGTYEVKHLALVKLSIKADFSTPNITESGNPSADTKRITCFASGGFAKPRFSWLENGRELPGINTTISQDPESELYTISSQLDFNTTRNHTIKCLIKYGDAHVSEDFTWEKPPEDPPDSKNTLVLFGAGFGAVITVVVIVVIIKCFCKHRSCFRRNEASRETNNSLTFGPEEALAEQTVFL
Assay: flow cytometry on cells

B1: CD28Ig (Fc fusion, mouse, UniProt P31041 20-150, looked up)
chain: NKILVKQSPLLVVDSNEVSLSCRYSYNLLAKEFRASLYKGVNSDVEVCVGNGNFTYQPQFRSNAEFNCDGDFDNETVTFRLWNLHVNHTDIYFCKIEFMYPPPYLDNERSNGTIIHIKEKHLCHTQSSPKL
- % wild-type B7 binding (normalised to anti-B7 mAb 10.16A.1): 7%
- MF (mean fluorescence, control subtracted): 2 MF
